Measurements as given in patent publication US20140017267A1, “METALLOPROTEINASE OLIGOPEPTIDES AND THEIR THERAPEUTIC USE” (priority 2012, published 2014).

Legend:
[1] = Testing of peptide solubility; assay type: physicochemical; conditions: 8M Urea, final concentration 1.1 mg/ml (first solubility table, headed TABLE 1)
Procedure: Testing of peptide solubility: Data for peptide solubility are represented in Table 1 and 2. Peptides SEQ ID 5-21 was dissolved in 8M Urea to a final concentration of 1.1 mg/ml.

[2] = Testing of peptide solubility; assay type: physicochemical
[3] = test system: BALB/c female mouse; test: Immune response to individual peptide: immunization of mice, indirect solid-phase immunoenzymatic assay of antiserum (A450); assay type: in vivo; conditions: for immune response: comparison among the 17 peptides; for OD 450 Mean values (n = 3-5) for dilution 1:10,000: antiserum of mice immunized i.p. with 100 μg peptide+Str-HRP, day 38 bleed, serum dilution 1:10,000
Procedure: Peptides were dissolved in appropriate volume 8M Urea and additional solution. Final concentration of peptide-Str-HRP solution was 0.8 mg/ml and 0.6 mg/ml for peptide and Str-HRP, respectively. After dissolving, 4 aliquotes in 0.2 ml portions were taken from each peptide solution, mixed with 0.6 ml Str-HRP and incubated over night at +4° C. Conjugate peptide with carrier protein (Str-HRP) was frozen and stored at −20° C. until further use. Final concentration of urea in peptide-Str-HRP solution was 2M for all peptides.
Day 0: Immunization with complete Freund's adjuvant Day 7: Booster with incomplete Freund's adjuvant Day 14: Booster with incomplete Freund's adjuvant Day 28: Booster with incomplete Freund's adjuvant Day 38: Terminal bleed
Method of Immunization: Frozen 0.8 ml aliquotes of peptide+Str-HRP conjugate were thawed at room temperature (RT) and mixed with 0.8 ml of appropriate adjuvant. Adjuvant was added and mixed by vortexing immediately before injections were given. Immunization was done by using intra peritoneal injections with 100 μg peptide per animal in final volume 250 μl of 1:1 (v:v) peptide+Str-HRP:adjuvant. Five animals were used per peptide.
Preparation of serum: At 38 days, the mouse was bled. Blood was collected in 2-ml microcentrifuge tube and the blood was allowed to clot at room temperature for 1 hour. Centrifugation using the microcentrifuge tube with the clot inside was done for 15 min at 2500 g and serum was collected. Volume for each sample was no less than 400 μl. The serum was stored at −20° C.
Testing immune response to individual peptide: Determination of mouse antibodies to peptide based on indirect solid-phase immunoenzymatic assay with avidin on solid-phase was performed. Materials used were 96-well polystyrene plates high binding (#9018 Costar, USA), all solution for ELISA: sample diluent (10 mM sodium phosphate, 500 mM NaCl, 0.5% BSA, 0.05% Tween-20, pH 7.4), conjugate diluent (10 mM sodium phosphate, 150 mM NaCl, 0.5% BSA, 0.05% Tween-20, pH 7.4), wash fluid (10 mM sodium phosphate, 300 mM NaCl, 0.05% Tween-20, pH 7.4), substrate buffer (50 mM sodium citrate and hydrogen peroxide, pH 5.0), TMB solution (3,3′,5,5′-tetramethylbenzidine), stop solution (2M sulphuric acid) were taken from EIA Kit for detection of antibody to HIV “Peptoscreen-2” (Amercard Ltd, Russia), conjugate of rabbit antibody to mouse IgG with HRPO (custom made), avidin from egg white (Imtek, Russia). Negative controls of 5 sera were pooled from the nonimmune BALB/c female mouse. Dispensing of solutions with Finnpipette digital adjustable volume pipettes 0.5-10 μl, 5-40 μl, 20-200 μl, 200-1000 μl, 1-5 ml and 12-channel pipettes 5-50 μl, 50-200 μl. Plate washer ZLE201 (Amersham Inc., UK), incubator at 37° C.—Imperial II (Lab-Line Instruments Inc., USA), EIA plate reader—Luminometer-Photometer LM01A (Immunotech, Beckman Coulter Company, USA).
Test procedure: Peptides for binding on the avidin-coated plate were taken from test-solution for determining the solubility of peptides (chapter 1.3., table 1 and 2) and were dissolved up to 2 mM in sample diluents immediately before the test procedure as shown in Table 3.
EIA plates were coated by adding to a well containing 100 μl of avidin dissolved 10 μg/ml in 50 mM carbonate buffer, pH 9.5 and incubated for 20 h at 20° C. The plates were washed 4 times with wash fluid. Peptides 2 mM, […] in sample diluent and incubated 60 min at 37° C. Control wells contain avidin. The plates were washed 4 times with wash fluid. Serum from each mouse and negative control were diluted 1:100, 1:1000 and 1:10000 in sample diluents and were added to the wells, coated by the corresponding peptide (100 μl per well) and incubated for 1 h at 37° C. The plates were washed 4 times with wash fluid. Conjugates of rabbit anti-mouse IgG antibody with HRPO (dilution of 1:3000 in conjugate diluent) were added to the wells (100 μl per well). The plates were incubated for 0.5 h at 37° C. […]

[4] = 8M Urea, larger weights (TABLE 2), no additional solution

| Substance | Solubility [1] | Solubility [2, 4] | immune response [3] | OD 450 Mean values (n = 3-5) for dilution 1:10,000 [3] | Solubility ([2]; 8M Urea plus equal volume 0.1M Na-carbonate buffer, pH 9.5 (TABLE 2)) |
| --- | --- | --- | --- | --- | --- |
| SEQ ID 15: Pufferfish MMP-9 synthetic oligopeptide, sequence CHFPFRFQNKPYKHC | Soluble | Soluble | most active |  |  |
| SEQ ID 8: Carp MMP-9 synthetic oligopeptide, sequence DKDKIFGF | Soluble | Soluble |  | 0.097 |  |
| SEQ ID 6: Bovine MMP-9 synthetic oligopeptide, sequence DADRQFGF | Soluble | Soluble |  | 0.096 |  |
| SEQ ID 20: Carp MMP-9 synthetic oligopeptide, sequence DKKYGFCPNRDTAVI | Soluble | Soluble |  | 0.138 |  |
| SEQ ID 7: Rat MMP-9 synthetic oligopeptide, sequence DTDRKYGF | Soluble | Soluble |  | 1.610 |  |
| SEQ ID 12: Rat MMP-9 synthetic oligopeptide, sequence CHFPFTFEGRSYLSC | Insoluble |  |  | 0.661 | Soluble |
| H-RILAVERYLKDQQLLGIWGCSGKLICTTAVPWNAS-OH (cysteine pairing not given here) [SP35, reference compound] |  | Soluble |  |  |  |
| SEQ ID 21: Rabbit MMP-9 synthetic oligopeptide, sequence DKDKLYGFCPTRADS | Soluble | Soluble |  | 0.411 |  |
| SEQ ID 10: Rabbit MMP-9 synthetic oligopeptide, sequence DTDRRFGF | Soluble | Soluble |  |  |  |
| SEQ ID 11: Mouse MMP-9 synthetic oligopeptide, sequence DKDGKFGF (printed identical to SEQ ID 5) | Soluble | Soluble |  | 0.183 |  |
| SEQ ID 14: European Carp MMP-9 synthetic oligopeptide, sequence CHFPFLFEGTSYSSC | Soluble | Soluble |  | 0.394 |  |
| SEQ ID 17: Bovine MMP-9 synthetic oligopeptide, sequence DQDKLYGFCPTRVDA | Soluble | Soluble |  | 0.780 |  |
| SEQ ID 19: Mouse MMP-9 synthetic oligopeptide, sequence DQDKLYGFCPTRVDA (printed identical to SEQ ID 17) | Soluble | Soluble |  | 0.818 |  |
| SEQ ID 9: Pufferfish MMP-9 synthetic oligopeptide, sequence DKDKKYGF | Soluble | Soluble |  | 0.131 |  |
| SEQ ID 16: Flounder MMP-9 synthetic oligopeptide, sequence CHFPFTFEGKSYTSC | Soluble | Soluble |  | 0.823 |  |
| SEQ ID 18: Rat MMP-9 synthetic oligopeptide, sequence DKADGFCPTRADVTV | Soluble | Soluble |  | 0.138 |  |
| SEQ ID 13: Chicken MMP-9 synthetic oligopeptide, sequence CHFPFIFEGRSYSRC | Soluble | Soluble | most active |  |  |
| SEQ ID 5: Mouse MMP-9 synthetic oligopeptide, sequence DKDGKFGF | Soluble | Soluble |  | 0.845 |  |
